Results: patent US20240245805A1 (Orna Therapeutics, Inc., priority 2020, published 2024)

B1: EV F1 BEV 261 (nucleic acid, listed as Enterovirus sp.)
chain: GCAATGCTGCACCAGTGCACTGGTACGCTAGTACCTTTTCACGGAGTAGATGGTATCCCTTACCCCGGAACCTAGAAGATTGCACACAAACCGACCAATAGGCGCACCGCATCCAGCCGTGCAGCGGTCAAGCACTTCTGTCTCCCCGGTCTGTAAAGATCGTTATCCGCCCGACCCACTACGAAAAGCCTAGTAACTGGCCAAGTGAACGCGAAGTTGCGCTCCGCCACAACCCCAGTGGTAGCTCTGGAAGATGGGGCTCGCACCACCCCCGTGGTAACACGGTTGCCTGCCCGCGTGTGCTTCCGGGTTCGGTCTCGTGCCGTTCACTTCAACTTCACGCAACCAGCCAAGAGCCTATTGTGCTGGGACGGTTTTCCTCCGGGGCCGTGAATGCTGCTAATCCCAACCTCCGAGCGTGTGCGCACAATCCAGTGTTGCTACGTCGTAACGCGTAAGTTGGAGGCGGAACAGACTACTTTCGGTACCCCGTGTTTCCTCTCATTTTATTTAATATTTTATGGTGACAATTGTTGAGATTTGCGCTCTTGCAACGTTGCCATTGAATATTGGCTTATACTATTTGGTTGCCTTTTACAAAACCTCTGATATACCCAGTTCTTACATTGATCTGCTTGTTTTTCTCAATTTGAAGTATAGACTACAAATAGCAAA
modifications: lipid formulation
B2: HRVA73 (nucleic acid, listed as Rhinovirus sp.)
chain: TTAAAACTGGGTTTGGGTTGTTCCCACCCAAACCACCCACGCGGTGTTGTACACTGTTATTCCGGTAACCTTGTACGCCAGTTTTATATCCCTTCCCCCCCTTGTAACTTAGAAGACATGCGAATCGACCAATAGCAGGCAATCAACCAGATTGTCACCGGTCAAGCACTTCTGTTTCCCCGGCTCTCGTTGATATGCTCCAACAGGGCAAAAACAATTGGAGTCGTTACCCGCAAGATGCCTACGCAAAACCTAGTAGCATCTTCGAAGATTTTTGGTTGGTCGCTCAGTTGCTACCCCAGCAATAGACCTGGCAGATGAGGCTAGAAATACCCCACTGGTGACAGTGTTCTAGCCTGCGTGGCTGCCTGCACACCCACACGGGTGTGAAGCCAAAGATTGGACAAGGTGTGAAGAGTCACGTGTGCTCATCTTGAGTCCTCCGGCCCCTGAATGCGGCTAACCTTAACCCCGTAGCCATTGCTCGCAATCCAGCGAGTATATGGTCGTAATGAGTAATTACGGGATGGGACCGACTACTTTGGGTGTCCGTGTTTCACTTTTTACTTATCAATTTGCTTATGGTGACAATATATATAGATATATATTGACACC
modifications: lipid formulation
B3: EV D94 (nucleic acid, listed as Enterovirus sp.)
chain: CGTGGCGGCCAGTACTCTGGTATCACGGTACCTTTGTACGCCTGTTTTATATCCCCTTCCCCCGCAACTTAGAAGAAAACAAATCAAGTTCACTAGGAGGGGGTACAAACCAGTACCACCACGAACAAGCACTTCTGTTTCCCCGGTGATGTCGTATAGACTGTAACCACGGTTGAAAACGATTGATCCGTTATCCGCTCTTGTACTTCGAAAAGCCCAGTATCACCTTGGAATCTTCGATGCGTTGCGCTCAGCACTCAACCCCAGAGTGTAGCTTAGGTCGATGAGTCTGGACACTCCTCACCGGCGACGGTGGTCCAGGCTGCGTTGGCGGCCTACCTGTGGTCCAAAGCCACAGGACGCTAGTTGTGAACAAGGTGTGAAGAGCCTATTGAGCTACAAGAGAATCCTCCGGCCCCTGAATGCGGCTAATCCTAACCACGGAGCAAGGGTACACAAACCAGTGTATATCTTGTCGTAACGCGCAAGTCTGTGGCGGAACCGACTACTTTGGGTGTCCGTGTTTCCTTTTGTTTTTATCATGGCTGCTTATGGTGACAATCTAAGATTGTTATCATATAGCTGTTGGATTGGCCATCCGGTAATTTATTGAGATTTGAGCATTTGCTTGTTTCTTCAACAATTTCACCTATTCATTGCATTTCAGCAGTCAAA
modifications: lipid formulation
B4: EV J 1631 (nucleic acid, listed as Enterovirus sp.)
chain: CACCCTGAGGGCCCACGTGGCGTAGTACTCTGGTATCAAGGTACCTTTGTACGCCTATTTTATTTCCCTTCCCCCACAGTAACTTAGAAGCTTATCTCATAGTTCAACAGTAGGGTCACTAACCAAGTGGCTCAGCGAACAAGCACTTCTGTTTCCCCGGTCCTAGTACCTGTGAAGCTGTACCCACGGCGGAAGGGGAAAAAGATCGTTATCCGGCCCCCTACTTCGGAAAGCCTAGTAACACCATTGAAGCAATCGAGTGTTGCGCTCAGCACAGTAACCCCTGTGTAGCTTTGGTTGATGAGTCTGGGCACTCCCCACTGGCGACAGCGGCCCAGGCTGCGTTGGCGGCCAACCGACTCGGGCAACCGGGTCGGACGCTCGTTTGTGGACATGGTGTGAAGAGCCTACTGAGCTAGAGGGTAGTCCTCCGGCCCCTGAATGCGGATAATCCTAACCCCGGAGCACCCACACTCAATCCAGAGTGCAGGATGTCGTAACGCGTAAGTCTGGGACGGAACCGACTACTTTGGGTGTCCGTGTTTCCTGTTTTACTTACTTTGGCTGCTTATGGTGACAATCTAGTGTTGTTACCATATAGCTATTGGATTGGCCATCCGGTGTTTTGAATTGTGTGTTTATACTAATTCTTTTACATATCACAGACAACCAAAT
modifications: lipid formulation
B5: EV K (nucleic acid)
chain: TCAGCCTGACGCAAGTGCCTCCATTGGAGTCTCTCCAAGCCCTCCGGGGCTTGGAGGGCGCCGACCCCCTGCCTAGGGGGAGCCCACGACACGGCTGGAGTCCATTGGCACACCGCAGCCACGATTCAAGCCAGAATTGAAAGCGGGAAGCACTTCTGTCTCCCCGGTGTGGATCATACGCTGTACCCACGGCGAAAAGTGAAGCATCGTTACCCGACTCGGTACTTCGAGAAGCCCAGTACAGTTGTGGATCTCTGCAGGGTATACGCTCAGCGTGACCCCTACGTAGTTCCTTGAGATGGCTGAGAGAACACCCCACGGGCGACCGTGTCTCTCGGCGCGTGGCTCAAGGCCGGGCCTTCAGTGGCTCGGTGCCTTGCAGAGTGAAGCCTCCGAACAGCCTATTGAGCTACCGTTTAGCCTCCGCCCTCTTGAATGCGGCTAATCCTAACCATGGAGCGCCCGCCCACAGTCCAGTGGGTAGAGCGTCGTAACGCGCAAGTCCGTGGCGGAACCGACTACTTTAGAGTGGCGTGTTTCCAATTTATCCTTTATAAAGTTGCTTATGGTGACACCACAAGAGATCCACGATTTCTTGTTTCTTATCACTGAGACACAAGTCATATTCATCAATCTTTATTGCGGAATTAACTTGGTGCGTCCAAACACATCAGC
modifications: lipid formulation; Enterovirus K
B6: EV I (nucleic acid)
chain: TTAGTACTTTCTCACGGGGATAGTGGTATCCCTCCCTAGTAATTTAGAAGACTTGAAAAACCGACCAATAGGCACCTCGCATCCAGCGGGGTAAAGGTCAAGCACTTCTGTTTCCCCGGGTCGAGTAGCGATAGACTGTGCCCACGGTCGAAGGTGAAACAACCCGTTATCCGACTTTGTACTTCGGGAAGCCTAGTACCACCAAAGATTATGCTTGGGGTTTCGCTCAGCACGACCCTGGTGTAGATCAGGCCGATGGATCACCGCATTCCTCACAGGCGACTGTGGCGGTGGTCGCGTGGCAGCCTGCCGATGGGGCAACCCATCGGACGCCAAGCATATGACAGGGTGTGAAGAGCCTACTGAGCTACAAAGTATTCCTCCGGCCCCTGAATGCGGCTAATCCCAACCACGGAGCATTTGCTACCAAACCAGGTAGTGGAATGTCGTAACGGGTAACTCTGTGGCGGAACCGACTACTTTGGGTGTCCGTGTTTCCTTTTAATTTATCATTCTGTATATGGTGACAACTATAGTGCTATCTCGATTTGCATTACTATTGTTGAGATTAAAACTTTATTACATTGTTGCATTTTACCCTTTGAGTGAGTTTTCACCTGAACAGATTAATTTACTCATCCTGTTTATATATTACAAGCAGAAATACTTGCAAAG
modifications: lipid formulation; Enterovirus I

test system: HEK293 cells; type: cell-based, human; conditions: circular RNA encoding Gluc with the listed IRES (UTR truncated to 675 nt) transfected into HEK293 cells; supernatant after 24 hours

Point of comparison: B3, “Expression (luminescence from secreted Gluc protein)” value 9.25E+07. Against it:
- B1 — lower, 1.12E+07
- B2 — higher, 1.08E+08
- B4 — higher, 9.88E+07
- B5 — lower, 7.52E+07
- B6 — higher, 1.31E+08
